In patent US20230406950A1 (LYVGEN BIOPHARMA, published 2023):

B1: Ly756 (bispecific antibody, human IgG1, kappa)
heavy: QVQLVQSGAEVKKPGASVKVSCKASGYTFAGFEMHWVRQAPGQGLEWMGAIDPKTGGTDYNQKFKDRVTMTRDTSISTAYMELSRLRSDDTAVYYCARDLGYFDVWGQGTLVTVSSASTKGPSVFPLAPSSKSTSGGTAALGCLVKDYFPEPVTVSWNSGALTSGVHTFPAVLQSSGLYSLSSVVTVPSSSLGTQTYICNVNHKPSNTKVDKKVEPKSCDKTHTCPPCPAPELLGPSVFLFPPKPKDTLMISRTPEVTCVVVDVSHEDPEVKFNWYVDGVEVHNAKTKPREEQYNSTYRVVSVLTVLHQDWLNGKEYKCKVSNKALPAPIEKTISKAKGQPREPQVYTLPPSREEMTKNQVSLTCLVKGFYPSDIAVEWESNGQPENNYKTTPPVLDSDGSFFLYSKLTVDKSRWQQGNVFSCSVMHEALHNHYTQKSLSLSPGK
light: DIQMTQSPSSLSASVGDRVTITCRASQDIRSNLNWYQQKPGGAVKLLIYYTSRLHSGVPSRFSGSGSGTDYTLTISSLQPEDFATYFCQQSEKLPRTFGGGTKVEIRRTVAAPSVFIFPPSDEQLKSGTASVVCLLNNFYPREAKVQWKVDNALQSGNSQESVTEQDSKDSTYSLSSTLTLSKADYEKHKVYACEVTHQGLSSPVTKSFNRGECGGGGSGGGGSGGGGSGGGGSEIVLTQSPATLSLSPGERATLSCRASKSVRTGMHWYQQKPGQAPRLLIYGASNLESGIPARFSGSGSGTDFTLTISSLEPEDFAVYYCQQSWNHFTFGQGTKLEIKGGGGSGGGGSGGGGSGGGGSQVQLQESGPGLVKPSETLSLTCTVSGFSLTSYNVHWIRQPPGKGLEWIGVIWSGVRTDYNSVLKPRVTISVDTSKNQFSLKLSSVTAADTAVYYCARGTYDDNYHDVMDAWGQGTLVTVSS
notes: Anti-GITR/CD137: Ly1630 heavy chain; Ly1630 light chain fused to TM685 scFv (VL-VH)
B2: Ly757 (bispecific antibody, human IgG1, kappa)
heavy: B1 heavy
light: DIQMTQSPSSLSASVGDRVTITCRASQDIRSNLNWYQQKPGGAVKLLIYYTSRLHSGVPSRFSGSGSGTDYTLTISSLQPEDFATYFCQQSEKLPRTFGGGTKVEIRRTVAAPSVFIFPPSDEQLKSGTASVVCLLNNFYPREAKVQWKVDNALQSGNSQESVTEQDSKDSTYSLSSTLTLSKADYEKHKVYACEVTHQGLSSPVTKSFNRGECGGGGSGGGGSGGGGSGGGGSQVQLQESGPGLVKPSETLSLTCTVSGFSLTSYNVHWIRQPPGKGLEWIGVIWSGVRTDYNSVLKPRVTISVDTSKNQFSLKLSSVTAADTAVYYCARGTYDDNYHDVMDAWGQGTLVTVSSGGGGSGGGGSGGGGSGGGGSEIVLTQSPATLSLSPGERATLSCRASKSVRTGMHWYQQKPGQAPRLLIYGASNLESGIPARFSGSGSGTDFTLTISSLEPEDFAVYYCQQSWNHFTFGQGTKLEIK
notes: Anti-GITR/CD137: Ly1630 heavy chain; Ly1630 light chain fused to TM685 scFv (VH-VL)
B3: Ly759 (bispecific antibody, human IgG1, kappa)
heavy: QVQLQESGPGLVKPSETLSLTCTVSGFSLTSYNVHWIRQPPGKGLEWIGVIWSGVRTDYNSVLKPRVTISVDTSKNQFSLKLSSVTAADTAVYYCARGTYDDNYHDVMDAWGQGTLVTVSSASTKGPSVFPLAPSSKSTSGGTAALGCLVKDYFPEPVTVSWNSGALTSGVHTFPAVLQSSGLYSLSSVVTVPSSSLGTQTYICNVNHKPSNTKVDKKVEPKSCDKTHTCPPCPAPELLGPSVFLFPPKPKDTLMISRTPEVTCVVVDVSHEDPEVKFNWYVDGVEVHNAKTKPREEQYNSTYRVVSVLTVLHQDWLNGKEYKCKVSNKALPAPIEKTISKAKGQPREPQVYTLPPSREEMTKNQVSLTCLVKGFYPSDIAVEWESNGQPENNYKTTPPVLDSDGSFFLYSKLTVDKSRWQQGNVFSCSVMHEALHNHYTQKSLSLSPGGGGGSGGGGSGGGGSGGGGSQVQLVQSGAEVKKPGASVKVSCKASGYTFAGFEMHWVRQAPGQGLEWMGAIDPKTGGTDYNQKFKDRVTMTRDTSISTAYMELSRLRSDDTAVYYCARDLGYFDVWGQGTLVTVSSGGGGSGGGGSGGGGSGGGGSDIQMTQSPSSLSASVGDRVTITCRASQDIRSNLNWYQQKPGGAVKLLIYYTSRLHSGVPSRFSGSGSGTDYTLTISSLQPEDFATYFCQQSEKLPRTFGGGTKVEIR
light: EIVLTQSPATLSLSPGERATLSCRASKSVRTGMHWYQQKPGQAPRLLIYGASNLESGIPARFSGSGSGTDFTLTISSLEPEDFAVYYCQQSWNHFTFGQGTKLEIKRTVAAPSVFIFPPSDEQLKSGTASVVCLLNNFYPREAKVQWKVDNALQSGNSQESVTEQDSKDSTYSLSSTLTLSKADYEKHKVYACEVTHQGLSSPVTKSFNRGEC
notes: Anti-GITR/CD137: TM685-derived heavy chain fused to Ly1630 scFv (VH-VL); TM685 light chain

Molecular target: T1, human CD137 expressed on cells (human, UniProt Q07011 24-255)
T1 construct: whole, on cells; also called 4-1BB; TNFRSF9
T1 sequence (Q07011 24-255): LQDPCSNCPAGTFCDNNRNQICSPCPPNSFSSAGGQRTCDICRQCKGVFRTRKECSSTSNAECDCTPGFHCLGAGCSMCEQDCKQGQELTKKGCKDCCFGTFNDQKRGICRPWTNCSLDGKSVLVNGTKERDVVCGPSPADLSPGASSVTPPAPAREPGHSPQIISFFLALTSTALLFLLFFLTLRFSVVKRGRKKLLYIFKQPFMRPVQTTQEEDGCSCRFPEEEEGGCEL
Assay: FACS on CHO cells expressing human CD137 (MFI)
Protocol: Anti-GITR/CD137 bi-specific antibodies were analyzed by FACS for their binding properties to human GITR and/or human CD137 expressed on CHO cells. Briefly, cultured cells were harvested, counted and cell viability was evaluated using the Trypan Blue exclusion method. Viable cells were then adjusted to 2×10⁶ cells per mL in PBS containing 2% BSA. 100 μL of this cell suspension were further aliquoted per well into a V-bottom 96-well plate. […] After incubation for 2 hours at 4° C., cells were centrifuged (3 min, 1000× g), washed with 250 μL/well BSA-containing FACS Stain Buffer, resuspended and incubated for an additional 1 hour at 4° C. with 100 μL/well fluorochrome-conjugated anti-IgG antibody for detection of the bisepecific antibody. Cells were then washed with 250 μL/well BSA-containing FACS Stain Buffer, resuspended in 100 μL/well FACS Stain Buffer, acquired and analyzed using a FACS machine. Binding of the bispecific antibodies to human GITR or human CD137 expressing CHO cells were evaluated and the mean fluorescence intensity is plotted in histograms or dot plots.

| Binder | EC50 (read off the curve) |
| --- | --- |
| B1 | ~0.1 µg/mL |
| B2 | ~0.2 µg/mL |
| B3 | ~0.6 µg/mL |
